According to the supplement of paper PMC10724198:
± gives the standard deviation of the averaged measurements.

Assays:
Saccharomyces cerevisiae [1] = test: protein stability index of tFT-peptide fusion (C-terminal peptide) (PSI (0-1 scale)); higher = more stable (slower turnover)
Method: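 MPS profiling in S. cerevisiae of the tFT-X12 degron library: putative degron peptides plus stable controls, 12 aa, fused to the C-terminus of a sfGFP-mCherry timer. Cells are FACS-sorted into 8 mCherry/sfGFP bins and deep-sequenced. PSI runs from 0 (unstable) to 1 (stable). Backgrounds are wild type, das1Δ and doa10Δ at 30 °C, and wild type, das1Δ, cdc34-1 and cdc53-1 at 37 °C; 2-3 technical replicates each.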

Saccharomyces cerevisiae [2] = test: as above; conditions: genetic background: wild type; temperature: 30 C
[3] = genetic background: cdc34-1, temperature: 37 C
[4] = genetic background: cdc53-1, temperature: 37 C
[5] = genetic background: das1 deletion, temperature: 30 C
[6] = genetic background: das1 deletion, temperature: 37 C
[7] = genetic background: doa10 deletion, temperature: 30 C
[8] = genetic background: wild type, temperature: 30 C
[9] = genetic background: wild type, temperature: 37 C
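Further: PSI is a weighted mean of sequencing reads over stability bins, variants kept only with over 10 reads, mCherry proximal and sfGFP distal, peptide attached via GGGS linker.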

IVVLCHVFLDLG
protein stability index (Saccharomyces cerevisiae [1]; [3]): 0.048 ± 0.01 | protein stability index (Saccharomyces cerevisiae [1]; [4]): 0.128 ± 0.033 | protein stability index (Saccharomyces cerevisiae [1]; [5]): 0.125 ± 0.048 | protein stability index (Saccharomyces cerevisiae [1]; [6]): 0.222 ± 0.019 | protein stability index (Saccharomyces cerevisiae [1]; [7]): 0.074 ± 0.026 | protein stability index (Saccharomyces cerevisiae [1]; [8]): 0.0933 ± 0.021 | protein stability index (Saccharomyces cerevisiae [1]; [9]): 0.2008 ± 0.00035 | protein stability index (Saccharomyces cerevisiae [2]): 0.126 ± 0.03

FYLPGLFFVRFR
protein stability index (Saccharomyces cerevisiae [1]; [3]): 0.167 ± 0.072 | protein stability index (Saccharomyces cerevisiae [1]; [4]): 0.0822 ± 0.053 | protein stability index (Saccharomyces cerevisiae [1]; [5]): 0.313 ± 0.043 | protein stability index (Saccharomyces cerevisiae [1]; [6]): 0.33 ± 0.019 | protein stability index (Saccharomyces cerevisiae [1]; [7]): 0.616 ± 0.037 | protein stability index (Saccharomyces cerevisiae [1]; [8]): 0.272 ± 0.026 | protein stability index (Saccharomyces cerevisiae [1]; [9]): 0.29 ± 0.04 | protein stability index (Saccharomyces cerevisiae [2]): 0.391 ± 0.022

YAFTCFLLVVAP
protein stability index (Saccharomyces cerevisiae [1]; [3]): 0.172 ± 0.0073 | protein stability index (Saccharomyces cerevisiae [1]; [4]): 0.23 ± 0.011 | protein stability index (Saccharomyces cerevisiae [1]; [5]): 0.167 ± 0.021 | protein stability index (Saccharomyces cerevisiae [1]; [6]): 0.302 ± 0.011 | protein stability index (Saccharomyces cerevisiae [1]; [7]): 0.1642 ± 0.0014 | protein stability index (Saccharomyces cerevisiae [1]; [8]): 0.16 ± 0.015 | protein stability index (Saccharomyces cerevisiae [1]; [9]): 0.259 ± 0.022 | protein stability index (Saccharomyces cerevisiae [2]): 0.237 ± 0.013

TVLPCVLLFLRG
protein stability index (Saccharomyces cerevisiae [1]; [3]): 0.61 ± 0.026 | protein stability index (Saccharomyces cerevisiae [1]; [4]): 0.632 ± 0.012 | protein stability index (Saccharomyces cerevisiae [1]; [5]): 0.508 ± 0.035 | protein stability index (Saccharomyces cerevisiae [1]; [6]): 0.613 ± 0.0086 | protein stability index (Saccharomyces cerevisiae [1]; [7]): 0.506 ± 0.022 | protein stability index (Saccharomyces cerevisiae [1]; [8]): 0.484 ± 0.037 | protein stability index (Saccharomyces cerevisiae [1]; [9]): 0.603 ± 0.03 | protein stability index (Saccharomyces cerevisiae [2]): 0.485 ± 0.013

CRLFPFPLLAQL
protein stability index (Saccharomyces cerevisiae [1]; [3]): 0.646 ± 0.034 | protein stability index (Saccharomyces cerevisiae [1]; [4]): 0.7407 ± 0.003 | protein stability index (Saccharomyces cerevisiae [1]; [5]): 0.628 ± 0.021 | protein stability index (Saccharomyces cerevisiae [1]; [6]): 0.7522 ± 0.0063 | protein stability index (Saccharomyces cerevisiae [1]; [7]): 0.425 ± 0.013 | protein stability index (Saccharomyces cerevisiae [1]; [8]): 0.415 ± 0.025 | protein stability index (Saccharomyces cerevisiae [1]; [9]): 0.484 ± 0.023 | protein stability index (Saccharomyces cerevisiae [2]): 0.488 ± 0.084

LVLFVCFSLFMR
protein stability index (Saccharomyces cerevisiae [1]; [3]): 0.153 ± 0.0065 | protein stability index (Saccharomyces cerevisiae [1]; [4]): 0.166 ± 0.037 | protein stability index (Saccharomyces cerevisiae [1]; [5]): 0.189 ± 0.019 | protein stability index (Saccharomyces cerevisiae [1]; [6]): 0.291 ± 0.012 | protein stability index (Saccharomyces cerevisiae [1]; [7]): 0.219 ± 0.0087 | protein stability index (Saccharomyces cerevisiae [1]; [8]): 0.168 ± 0.022 | protein stability index (Saccharomyces cerevisiae [1]; [9]): 0.2732 ± 0.00043 | protein stability index (Saccharomyces cerevisiae [2]): 0.309 ± 0.058

FTYFFFVRVLLV
protein stability index (Saccharomyces cerevisiae [1]; [3]): 0.11 ± 0.045 | protein stability index (Saccharomyces cerevisiae [1]; [4]): 0.14 ± 0.01 | protein stability index (Saccharomyces cerevisiae [1]; [5]): 0.156 ± 0.031 | protein stability index (Saccharomyces cerevisiae [1]; [6]): 0.2772 ± 0.00032 | protein stability index (Saccharomyces cerevisiae [1]; [7]): 0.11 ± 0.0067 | protein stability index (Saccharomyces cerevisiae [1]; [8]): 0.118 ± 0.0091 | protein stability index (Saccharomyces cerevisiae [1]; [9]): 0.129 ± 0.0084 | protein stability index (Saccharomyces cerevisiae [2]): 0.187 ± 0.0053

SFGSMIITYAWG
protein stability index (Saccharomyces cerevisiae [1]; [3]): 0.616 ± 0.011 | protein stability index (Saccharomyces cerevisiae [1]; [4]): 0.623 ± 0.0089 | protein stability index (Saccharomyces cerevisiae [1]; [5]): 0.467 ± 0.021 | protein stability index (Saccharomyces cerevisiae [1]; [6]): 0.638 ± 0.021 | protein stability index (Saccharomyces cerevisiae [1]; [7]): 0.491 ± 0.065 | protein stability index (Saccharomyces cerevisiae [1]; [8]): 0.486 ± 0.034 | protein stability index (Saccharomyces cerevisiae [1]; [9]): 0.637 ± 0.026 | protein stability index (Saccharomyces cerevisiae [2]): 0.473 ± 0.034

AGLAPCFLLFVC
protein stability index (Saccharomyces cerevisiae [1]; [3]): 0.261 ± 0.027 | protein stability index (Saccharomyces cerevisiae [1]; [4]): 0.343 ± 0.019 | protein stability index (Saccharomyces cerevisiae [1]; [5]): 0.3 ± 0.033 | protein stability index (Saccharomyces cerevisiae [1]; [6]): 0.44 ± 0.0063 | protein stability index (Saccharomyces cerevisiae [1]; [7]): 0.0908 ± 0.024 | protein stability index (Saccharomyces cerevisiae [1]; [8]): 0.0981 ± 0.021 | protein stability index (Saccharomyces cerevisiae [1]; [9]): 0.0938 ± 0.026 | protein stability index (Saccharomyces cerevisiae [2]): 0.133 ± 0.019

GFSFVCFSPFLF
protein stability index (Saccharomyces cerevisiae [1]; [3]): 0.667 ± 0.041 | protein stability index (Saccharomyces cerevisiae [1]; [4]): 0.779 ± 0.02 | protein stability index (Saccharomyces cerevisiae [1]; [5]): 0.65 ± 0.0058 | protein stability index (Saccharomyces cerevisiae [1]; [6]): 0.745 ± 0.011 | protein stability index (Saccharomyces cerevisiae [1]; [7]): 0.3864 ± 0.0023 | protein stability index (Saccharomyces cerevisiae [1]; [8]): 0.41 ± 0.02 | protein stability index (Saccharomyces cerevisiae [1]; [9]): 0.5401 ± 0.001 | protein stability index (Saccharomyces cerevisiae [2]): 0.42 ± 0.038

LPPVPLRLTLVL
protein stability index (Saccharomyces cerevisiae [1]; [3]): 0.448 ± 0.0077 | protein stability index (Saccharomyces cerevisiae [1]; [4]): 0.474 ± 0.031 | protein stability index (Saccharomyces cerevisiae [1]; [5]): 0.353 ± 0.026 | protein stability index (Saccharomyces cerevisiae [1]; [6]): 0.503 ± 0.005 | protein stability index (Saccharomyces cerevisiae [1]; [7]): 0.3197 ± 0.0027 | protein stability index (Saccharomyces cerevisiae [1]; [8]): 0.359 ± 0.024 | protein stability index (Saccharomyces cerevisiae [1]; [9]): 0.477 ± 0.0054 | protein stability index (Saccharomyces cerevisiae [2]): 0.4414 ± 0.00093

HLGAAVYVFSVL
protein stability index (Saccharomyces cerevisiae [1]; [3]): 0.664 ± 0.086 | protein stability index (Saccharomyces cerevisiae [1]; [4]): 0.707 ± 0.019 | protein stability index (Saccharomyces cerevisiae [1]; [5]): 0.551 ± 0.0072 | protein stability index (Saccharomyces cerevisiae [1]; [6]): 0.705 ± 0.016 | protein stability index (Saccharomyces cerevisiae [1]; [7]): 0.399 ± 0.071 | protein stability index (Saccharomyces cerevisiae [1]; [8]): 0.424 ± 0.0089 | protein stability index (Saccharomyces cerevisiae [1]; [9]): 0.64 ± 0.03 | protein stability index (Saccharomyces cerevisiae [2]): 0.477 ± 0.006

FMCGWRMLVSVS
protein stability index (Saccharomyces cerevisiae [1]; [3]): 0.0379 ± 0.032 | protein stability index (Saccharomyces cerevisiae [1]; [4]): 0.0371 ± 0.0077 | protein stability index (Saccharomyces cerevisiae [1]; [5]): 0.0474 ± 0.016 | protein stability index (Saccharomyces cerevisiae [1]; [6]): 0.0676 ± 0.027 | protein stability index (Saccharomyces cerevisiae [1]; [7]): 0.0307 ± 0.0023 | protein stability index (Saccharomyces cerevisiae [1]; [8]): 0.0292 ± 0.011 | protein stability index (Saccharomyces cerevisiae [1]; [9]): 0.045 ± 0.019 | protein stability index (Saccharomyces cerevisiae [2]): 0.0594 ± 0.023

LWAVGWIIYFIV
protein stability index (Saccharomyces cerevisiae [1]; [3]): 0.0967 ± 0.0059 | protein stability index (Saccharomyces cerevisiae [1]; [4]): 0.245 ± 0.014 | protein stability index (Saccharomyces cerevisiae [1]; [5]): 0.211 ± 0.028 | protein stability index (Saccharomyces cerevisiae [1]; [6]): 0.362 ± 0.0042 | protein stability index (Saccharomyces cerevisiae [1]; [7]): 0.106 ± 0.026 | protein stability index (Saccharomyces cerevisiae [1]; [8]): 0.106 ± 0.011 | protein stability index (Saccharomyces cerevisiae [1]; [9]): 0.0941 ± 0.006 | protein stability index (Saccharomyces cerevisiae [2]): 0.172 ± 0.024

GWRVWVQIIWGR
protein stability index (Saccharomyces cerevisiae [1]; [3]): 0.316 ± 0.013 | protein stability index (Saccharomyces cerevisiae [1]; [4]): 0.409 ± 0.0041 | protein stability index (Saccharomyces cerevisiae [1]; [5]): 0.293 ± 0.027 | protein stability index (Saccharomyces cerevisiae [1]; [6]): 0.441 ± 0.018 | protein stability index (Saccharomyces cerevisiae [1]; [7]): 0.282 ± 0.0029 | protein stability index (Saccharomyces cerevisiae [1]; [8]): 0.286 ± 0.02 | protein stability index (Saccharomyces cerevisiae [1]; [9]): 0.40261 ± 8.5e-05 | protein stability index (Saccharomyces cerevisiae [2]): 0.352 ± 0.028

VVVRFCLGICFC
protein stability index (Saccharomyces cerevisiae [1]; [3]): 0.36066 ± 0.00017 | protein stability index (Saccharomyces cerevisiae [1]; [4]): 0.408 ± 0.013 | protein stability index (Saccharomyces cerevisiae [1]; [5]): 0.301 ± 0.022 | protein stability index (Saccharomyces cerevisiae [1]; [6]): 0.438 ± 0.021 | protein stability index (Saccharomyces cerevisiae [1]; [7]): 0.265 ± 0.0087 | protein stability index (Saccharomyces cerevisiae [1]; [8]): 0.288 ± 0.017 | protein stability index (Saccharomyces cerevisiae [1]; [9]): 0.41 ± 0.012 | protein stability index (Saccharomyces cerevisiae [2]): 0.388 ± 0.011

AGSPPSRPPWLP
protein stability index (Saccharomyces cerevisiae [1]; [3]): 0.675 ± 0.047 | protein stability index (Saccharomyces cerevisiae [1]; [4]): 0.7369 ± 0.0062 | protein stability index (Saccharomyces cerevisiae [1]; [5]): 0.679 ± 0.051 | protein stability index (Saccharomyces cerevisiae [1]; [6]): 0.759 ± 0.024 | protein stability index (Saccharomyces cerevisiae [1]; [7]): 0.679 ± 0.034 | protein stability index (Saccharomyces cerevisiae [1]; [8]): 0.678 ± 0.021 | protein stability index (Saccharomyces cerevisiae [1]; [9]): 0.719 ± 0.042 | protein stability index (Saccharomyces cerevisiae [2]): 0.506 ± 0.018

KNKRQKNTIRKQ
protein stability index (Saccharomyces cerevisiae [1]; [3]): 0.669 ± 0.017 | protein stability index (Saccharomyces cerevisiae [1]; [4]): 0.682 ± 0.056 | protein stability index (Saccharomyces cerevisiae [1]; [5]): 0.654 ± 0.034 | protein stability index (Saccharomyces cerevisiae [1]; [6]): 0.757 ± 0.089 | protein stability index (Saccharomyces cerevisiae [1]; [7]): 0.2745 ± 0.00035 | protein stability index (Saccharomyces cerevisiae [1]; [8]): 0.346 ± 0.025 | protein stability index (Saccharomyces cerevisiae [1]; [9]): 0.573 ± 0.0086 | protein stability index (Saccharomyces cerevisiae [2]): 0.463 ± 0.016

SFYVWILLWSYY
protein stability index (Saccharomyces cerevisiae [1]; [3]): 0.26 ± 0.0071 | protein stability index (Saccharomyces cerevisiae [1]; [4]): 0.256 ± 0.012 | protein stability index (Saccharomyces cerevisiae [1]; [5]): 0.252 ± 0.023 | protein stability index (Saccharomyces cerevisiae [1]; [6]): 0.384 ± 0.032 | protein stability index (Saccharomyces cerevisiae [1]; [7]): 0.223 ± 0.015 | protein stability index (Saccharomyces cerevisiae [1]; [8]): 0.214 ± 0.024 | protein stability index (Saccharomyces cerevisiae [1]; [9]): 0.323 ± 0.014 | protein stability index (Saccharomyces cerevisiae [2]): 0.294 ± 0.021

HFSCLLIILGFC
protein stability index (Saccharomyces cerevisiae [1]; [3]): 0.275 ± 0.01 | protein stability index (Saccharomyces cerevisiae [1]; [4]): 0.395 ± 0.078 | protein stability index (Saccharomyces cerevisiae [1]; [5]): 0.268 ± 0.04 | protein stability index (Saccharomyces cerevisiae [1]; [6]): 0.448 ± 0.0081 | protein stability index (Saccharomyces cerevisiae [1]; [7]): 0.216 ± 0.005 | protein stability index (Saccharomyces cerevisiae [1]; [8]): 0.267 ± 0.023 | protein stability index (Saccharomyces cerevisiae [1]; [9]): 0.459 ± 0.092 | protein stability index (Saccharomyces cerevisiae [2]): 0.331 ± 0.026
